# Assay: soluble fraction after stress (log2 fold change); higher = more stays soluble; pooled small domains, quantitative proteomics
# Settings: stress: 50 degC
# Summary of the method: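 Custom libraries of small protein domains were pooled and measured in a high-throughput format, with quantitative proteomics as the read-out. Each library was stressed at 50°C. The value is the log2 fold change in the amount of each protein that stays soluble after stress, used as a measure of aggregation propensity; higher values mean more of the protein stays soluble.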
row,Sequence,soluble fraction (log2)
1,HMTLNTQLFTWKKGVRVGEDDQGNIYYRTKDDKRRWVIFTGETEATKVSPDWHGWLHRTWATPPNK,-2.39
2,HMGYSDEIGEFIKKLRTENHLTQKEFADKYGVTYQAVSKWENGKNLPDMSLIKQMSEDFNIGIDELLDGEK,-0.00754
3,HMKQYVEPASETEKMVVELWEKVLLTEKIGMHDDFFELGGHSLKAMRLISLYHQEFNVRLSLKSLFEKLK,-0.121
4,HMVENMDEFIGRVRRLVSDRLDLLKEASDDEIRETISQVVLELSREQFLTLNEKKTVLEGVFNSMR,-0.399
5,HMRLGQLQSVEEPKFIEVHSGKQGDIGEQTIVEYEIDAKYATGDATINLKLLFRDGLFEIYNFNFSSEALL,0.0828
6,HMNLDPHVVGHRLRDLRTRRDLTLADVAAETDISVSTLSRLESGSRRATLELLVPLARTYRVTLDELVDA,-0.66
7,HMQVVDWSQVDKEDYLLATKRRAVSTGELKFLLLNNLTYDLTQTRFFKGMDASYYYEGYNLYQTGE,0.122
8,HMAADLIGLEARVTLPLTEDQRGFIETSVRGSLVRRAALSASGRLDRGQRVVILRSEGTTLIVDAL,-0.844
9,HMIHSEEIQDHIFVKQLGEVFLRNHINYENIMKSWDDHTNVIKRFRRYPHRNKILNRESTIDEISFLKE,-0.0665
10,HMKISIPQEYFEIYNVLKQRPMHINEISKILKKPVSEISGTISLMEIEGYITKLTTDQYVLKKI,-0.143
11,HMRFKPLAEILAAVQTRYAGRVLDVELDRDQAGRNVYEVKLLAADGSRREIHIDAVTGKEVSL,-0.0325
12,HMPPPTLVESAYNHLKADIISSYLKPDEKINLKDLSQRYQVSETPIKQALNRLISEGLIISVPRKGMWVH,-0.0852
13,HMTAGTGIAYSEFRSKVQEGQVKDVAIAPDRITGTLSSGQKFSTVPVNDPGLPKMLDDFNVKYSGQA,0.104
14,HMQVSDVTTIRALVEEVLSSSPQQLAQYRAGKLSLKGYFVGQVMKKGKGQLNAAAVNNLLDEIL,-0.185
15,HMLAAGTPLTVVTESSNLNIRQEPSTEAAVVGKAAKGEIVTLVEQTSGEWWKVSTKDGEEGYAYSRYL,0.341
16,HMLMKILTDALEKMSPEELKELAEATGVKNTSSITPETMVGVFQAVFRVGGFKSYQLTLIIVNAVLKA,-0.126
17,HMDKKEFGKRLKNLRIRNKMSQQAMADSLGYTSRSTINKIEEGINEMSYDKIVRLMELYGLSRPDLGLEPI,-0.154
18,HMETQAGELQDAIRDAIAALPPRTREVFLMSRERNLRYGEIAEALGISVKAVEANMSRALRQLREKLSPFL,-0.454
19,HMNAKVVAPIPGTVLSIDIKVGDVIKIGDRLLVLEAMKMENNIASEKSGTVTAVHVKVGQQVLQNELMIEL,-1.39
20,HMEVEIPSREALLGLVQKHLKPVSFDEFVSHFKLGDERQQVGIKRRLRAMERDGQLVYTKANSYGLPDRM,0.194
21,HMDLSQTVQAKALARVNVREGAGTHFKSLGKLKKGELLPVFRVGNSWASIWWKGRVAYVHTDYLRFESA,-0.847
22,HMQITNEGQIKLVISEVLNENQEQKKQYLSGKEQVLGYLIGKVMQKTKGKANPKLVNDLMIKELS,0.257
23,HMLDYITLSPQELGKLLSAGNGDAAMVYLYMKATGDVTLKQAETQLGMTNQNLAWAESLLKRLGLMD,-0.556
24,HMVRSLESESVYDRQRAYEIAYQLRTEERPYSFIATQLNKAGLRPQKAARYEWYSVQELLRSA,-0.956
25,HMPQISQDDLMEAGLIVGKEAKQRRIKLGEILGIGYVNAKQLPKRLQLFQVAKSDFEQAVQQIDG,-0.0431

row,Sequence,soluble fraction (log2)
1,HMDRKFFYEDQYQDYLGEELKVSFFDTDNKKTVRGTLSEVTPHGIKINLEQETQEIPFSSIIQANLI,0.201
2,HMVNTYILNNKEYPIEIIRKNNKNTYLRVKEGKIIVTTNYLTSSFTINKLIKDNTSFINKALLKEN,-0.595
3,HMFTLNEIIGQKIRNARISAGLTLDELSKMTGISAAQLSSLETGYRRANIDTLYAIAKAIGIDVSNLLKY,-0.46
4,HMQAKDVEIPNFVGKTLAEANADNKDNFNFVVESKYDASKELGVILEQEPAADSKLVKSGSQITLKV,≥ 0.62
5,HMRQIRELFRLKFGSLLPTSDRQIAAQLGVARSTVAEYLERARAAGLSWPLPLDLSDADLEERLFA,-2.75
6,HMVDITPDLIRTLLERFGEYGVTKEHIEARIQRHIESILPAQVVQLRKTYNSLKDGMSQPSDWFDI,-1.26
7,HMPKTLTEAAYEDIKQWILEGEITPGSKISLEDTASRLEVSMTPIREALTKLQQEGLVEYIPRAGWRASK,0.173
8,HMQVSDANQLTDVVKSIIKQYPVEVEKYKSGKKALFGFFMGKVMENLKGKSNPKILKNVLTEILD,0.108
9,HMDDVYMVPVKDIAINDLKQEFEKLGIPNIQNTIPDKDLNFFIVRKDDLALVNYAIEKTMER,-0.0369
10,HMTAPQAQDYARVPDVLGLDMRESAQALRLDGFEMNAQGDGLAARQSPIGGSYAPEGTQVLVTFEM,0.102
11,HMAPDDTAVWSAFIGWFRTAPDGPNPLGAYAAKLGEEGLDAAEVGRRMTVIVRLFAEKPEGAEVFYDRTYA,-0.875
12,HMVYFDDEELDRFAGRAADSYTSDETDEFRDVMLTLLPADVMPWTQSIEMRGILLPEQLRDELLML,-0.764
13,HMAPPPPEGYIHRWIRESVMGFDDKKNLSARIREGFELVRAEEYPDYEAPTVMDGKHAGVIANGGLLLARF,-0.148
14,HMGHTVHAVPEAADRQRLDVFVGNLHPTISRAYIQKLSKEDQILVNGKPEKAGFKLRTGHSVSVPDMSE,0.0769
15,HMSEQTLEDVRRLIEHLPESQKEVVKMRYYQDLSFKEIADLKGISINTALGRMHYAINNMRKMAKEYGL,-1.54
16,HMAAHWANFLEALRAGRARRVLVARGVEGWLLKELERLGAPYTLVPRIELDTLLRTTHHQGIAAEVE,-0.692
17,HMSNWYKNNETDQIWWKDTPDSVGEWLFSFDKKQVFNMFADYPHNLTPEQKKIFDEENPEWSDRP,-0.328
18,HMNDTNEEAVLSIILKNPQATQGAIAKEVGASLSTVKRIMRNLQKSGKLRREGTNRNGSWVVTGQK,0.0846
19,HMPDFLAELAARMERDAVTEAQIRQVVAQKGHYPEEVSPAQYHPDFFRQWLFPHWEKIVDVIRSSPEYTP,-0.0503
20,HMQGATVYIKSDDIGKTTNEQGSFNFDKLKKNRYTLEISFIGYETKNLQAYTDRENIVQLNRKS,0.248
21,HMEDLGYVKVASQTAAIRKSAAVQAGQIGTVHEGETYRYLGEEEGWYLVEYNGQKAYISWDDGEL,-0.119
22,HMGSQQIEEGMRRLVASGALRPGASVPSVRDLARDLQVNPATVVRAYQRLVDAGLLVVRRGEGTFVAE,-0.588
23,HMFIEPPSLEELERRLRGRGTETDDVVDMRMRTALVELSQKMEYDYRLVNDDLDEATRQLVAYVNEIAEQ,0.0568
24,HMFVGVDMAVKEEIGKEGVAFTDLRPAGKVSIGDDVYDAVSETGAFITRGTSVRVLKYQAGQVYVVK,-0.154
25,HMEQWVSIEVEPGIRLDVALTEATQKSRSFIQNLIAEQRVLVNGQPKKANYKVRPGDHVELNYPEPT,0.0849

row,Sequence,soluble fraction (log2)
1,HMPQKSDLTMEEYNKLGLAGGSGSRKLREQVGIRLSVGYGNSKQFYNRLHTFGISLDELKTAVEEVKNG,-0.117
2,HMYLELVTKEGGSFDEPDYWGRRKLAYEIAGKTEGNYVVVKYTAEPATSDELDRVLNLNESVIRTKILRK,0.0508
3,HMSTANIVVPDVKGKTFEEAKKAIEAEGLTAKAEGDESGVVQKTSPSYGVSVESGSEVTLTLVKSDD,-0.0409
4,HMGNLIIFYDAQTGSAPLLKAVKTSGATLVYEYKNLHGIAIRPSSKTSIEDAIAYFKKVNGVLSVE,-1.84
5,HMDSLEIEEPITVKSLSAASGLKISDIIRKLMQEGIMATANQVIDREQAEAVLIDYNVDLVVKR,-0.248
6,HMESYWVVLRPMAAGTQIGANDLGYRSVALGAAAKNYLAASTNPIGSITRRRLVAGELLQGSSLTDDARA,-0.873
7,HMKIIDDIQEFAGVTKTQNTFFHIFNHLHQNGKQLILTSDRAPVMLQGMEERLLTRFKWGLVAELE,0.257
8,HMDTIRINSGSTVKEVAEYLGIPVPEVIKKLMSMGELATLTKTLSDDHIEVLAEEFEKKIKIVHVGEEAD,0.0343
9,HMGGFNATTLQNIEELRRSLSDADQFGRHEVIETIGGSDSRAGKLLKKMLEAGIIEQVKGHGKGRYRFKRT,-0.0136
10,HMKFLHLADLHLGKRVNGFSMLEDQAYILRQILTILDDERPDGVLIAGDVYDKPVPPTEAVELLD,-0.604
11,HMPLQYRLTVQPTPTNARVRLVNSAFTYRPGVALPPGSYIVEVSSSGYGAKRQAVQIADGDVTVPVELEKI,-0.012
12,HMESAEQTGEELAARVNVLQTVSQALARELGREAAVEELADKMKMTVDEVKDIMKMAMDAMSM,0.168
13,HMLNMTLGDRIRSRREELRMSQEELATRLGYKSRSTIAKIESGENDLTQSKIVAFAEALSTTARWLLDY,-1.04
14,HMEALSAREIEILQALETGASNRELAKMLFISEATVKTHLVHIYQKLGVGTRTAAITEARERRV,-1.64
15,HMDYKSTLQELVQTVKKSVTYEVIDEEGPSHNKTFTSIVKIDGIVMGKGTAGSKKASEQEAARDALSKR,0.271
16,HMHDRRSGKVKWYSDRKGYGFIDLDGGEVFIHRSALIAFGALRLQAEDIITITVRETDRGLVVDQLFGIER,-2.03
17,HMHLIPRESTYEIDGRRFVVDSVNLDFGKVSLQDITFRNATGFPIFRSESIEFMRRLVEISEAQRIAEL,-0.00889
18,HMNEIYHQIKVDNVSDDDISLFQYSGIEFDHADYRRGEYIEFAISNRDLSILNNLGYEYQVVHH,-0.757
19,HMQQAVTMQKPGRLLRNADGNGGAVRDLDVGMMLYPTGNRSELMWEVDDELGNRGWVNSTLFGLS,-0.109
20,HMQPAGEGAILRYLSSGAVKGIGPVMAREIVRRFGTDTFRVMEQEPEKLLKVKGITEQRLQTIMESYQD,-0.0857
21,HMFERIYVFSRDGDIIELPKGSTVLDFAYHVHTHVGNRAQAARVNKRYVPLTYQLKTGEQVEIIIS,-1.2
22,HMKVPDVQYMNKDSAIEALTANELKYTIVEAENENVAAGVVISQSVERDSQVAPGTSVELVVSTG,0.0357
23,HMAGPVLTPEEAEVLRILADHGEMTVDNISAEGKMSAAVVLRGLGVLSAYGLVAPGGPGRWRSE,-0.253
24,HMSVPNVVGRDQVEASSLLESAGFKVSVKQSYSDSVEQGKVISQSPSGSTTVSPGSTVTITVSQ,0.122
25,HMYQPLYEQIKRMLTQSLIDGEWKAGEMIPSEMELAARFKVSQGTVRKAIDELVSENILMRRQGKGTFVH,-0.231

# — the domain aggregation screens of Martell et al. (2025)
